The target in assay [1] is T1, biotin-angiocidin complex binding to TSP-1 (Homo sapiens, UniProt P55036, INS254GER).
T1 sequence (P55036 with tags, fused parts or gaps INS254GER): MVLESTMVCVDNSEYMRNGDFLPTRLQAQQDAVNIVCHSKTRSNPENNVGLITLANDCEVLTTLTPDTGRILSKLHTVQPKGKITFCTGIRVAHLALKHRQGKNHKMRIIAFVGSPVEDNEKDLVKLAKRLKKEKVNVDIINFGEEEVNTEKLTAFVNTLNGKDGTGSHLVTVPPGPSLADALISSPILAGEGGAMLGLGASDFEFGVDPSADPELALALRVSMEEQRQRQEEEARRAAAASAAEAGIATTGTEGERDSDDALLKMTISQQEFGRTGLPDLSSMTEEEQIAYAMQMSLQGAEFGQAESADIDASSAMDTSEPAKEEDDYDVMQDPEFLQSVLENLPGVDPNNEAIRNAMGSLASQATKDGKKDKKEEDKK
Briefly: Biotin-avidin receptor binding assay: competition. As to conditions: for competition of biotin-angiocidin binding to TSP-1: Example 23, FIGS. 29 and 30; for peptide competition of TSP-1 receptor binding: Example 25, peptide 1 mg/ml, FIG. 32. As to the method: In the following experiments, TSP-1 was covalently bound to a substrate, biotinylated angiocidin was added to the plate, and avidin-peroxidase was added to measure how much biotinylated angiocidin was attached to the TSP-1. The avidin-peroxidase was measured using a spectrophotometer at an absorbance of 450 nm.
Free angiocidin was added to the system to compete with the biotinylated angiocid in. […] Immobilized BSA was used as a negative control.
The TSP-1 peptide Cys-Ser-Val-Thr-Cys-Gly (SEQ ID NO: 1) was added to the system to compete with the TSP-1 on the plate for binding with the biotinylated angiocidin. The scrambled peptide Val-Cys-Thr-Gly-Ser-Cys (SEQ ID NO: 15) was used as a negative control and had no effect.
The avidin-biotin system discussed above was used to evaluate the competitive effect of various peptides on the binding of TSP-1 and angiocidin. […] The scrambled peptide Val-Cys-Thr-Gly-Ser-Cys-Gly (SEQ ID NO: 21) and the d-orientation peptide d-Cys-Ser-Val-Thr-Cys-Gly (SEQ ID NO: 22) were used as negative controls.

Assay [2] deals with T2, TSP-1 (Homo sapiens, UniProt P07996). Briefly: Affinity Sensor System (resonant mirror biosensor): binding to TSP-1 coupled to cuvette. As to conditions: peptide alone, TSP-1 immobilized in cuvette. The protocol: (§1) Binding of undenatured (in the ligand blot protocol above, the receptor is denatured by SDS) recombinant receptor to TSP-1 was evaluated using the Affinity Sensor System, Cambridge, UK. This is an optical binding method that uses a cuvette to which either ligand or receptor is covalently coupled. A laser beam is used to detect bound proteins to the protein-derivatized cuvette surface. This method is highly sensitive and measures both the association and dissociation rate constants for ligand receptor interactions. The instrument assumes that one molecule of receptor binds one molecule of TSP-1 and calculates the dissociation constant (KD) according to the following relationships:
1) kass[R][TSP-1]=kdiss[R-TSP-1] at equilibrium, where kass is the second order rate constant for association and kdiss is the first order rate constant for dissociation
2) KD=[R][TSP-1]/[R-TSP-1]=kdiss/kass
3) [R-TSP-1]t=[R-TSP-1]eq[1-exp(-kont)], where the instrument response measure in arc seconds is proportional to receptor-TSP-1 complex R-TSP-1].
4) kon=kass[L]+kdiss where kon is the pseudo-first order rate constant for receptor TSP-1 interaction.
(§2) About 1 μg of TSP-1 was coupled to the cuvette through its amino groups to COOH groups on the cuvette surface. Unreacted groups on the cuvette surface were then blocked with ethanolamine and albumin. […] A dissociation constant of […] was calculated from a plot of the pseudo first order rate constant for association versus the concentration of the receptor, as shown in FIG. 7. Instrument response vs time readings shown in FIG. 8, where the instrument response is proportional to the concentration of receptor-TSP-1 complex, were used to plot the data points on FIG. 7.
(§3) […] The peptides used were Val-Cys-His-Ser-Lys-Thr-Arg (SEQ ID NO: 8), Val-Cys(Acm)-His-Ser-Lys-Thr-Arg (SEQ ID NO: 9), and Pro-His-Ser-Arg-Asn (SEQ ID NO: 10). The first two peptides are derived from the binding portion of the receptor, where it interacts with the Cys-Ser-Val-Thr-Cys-Gly (SEQ ID NO: 1) portion of the TSP-1 protein. The third peptide is a control.

Assay [3] relates to Bovine aortic endothelial cells (BAEC). The assay is described as follows: ALAMAR BLUE cell viability assay. Type of assay: cell-based. Conditions: for cell viability, angiocidin and fragments: Example 27, FIG. 34. As to the method:
Bovine aortic endothelial cells (BAEC), human umbilical vein endothelial cells (HUVEC), fibroblast cells, A549 human lung carcinoma cells (A549), MDA-MB231 human breast carcinoma cells (MB231), MCF7 human breast carcinoma cells (MCF7) were treated with 37 μg/ml of receptor, or buffer alone, for 24 hours. Viability of the cells was measured using the ALAMAR BLUE™ assay, which measures the capacity of cells to metabolize the ALAMAR BLUE™ dye. The ALAMAR BLUE™ assay (available from Biosource International, Camarillo, Calif.) quantitatively measures the proliferation of cell lines and can establish the relative cytotoxicity of chemical agents. The assay incorporates a fluorometric/colorimetric growth indicator based on detection of metabolic activity. The system incorporates an oxidation-reduction (redox) indicator that both fluoresces and changes color in response to chemical reduction of growth medium resulting from cell growth. This causes the redox indicator to change from its oxidized, non-fluorescent, blue form to its reduced, fluorescent, red form. Data can be collected using either fluorescence-based instrumentation (530-560 nm excitation wavelength and 590 nm emission wavelength) or absorbance-based instrumentation (570 nm and 600 nm).
BAEC and BSM cells were treated with increasing concentrations of angiocidin (0, 0.625, 1.25, 2.5, 5, 15, 26 and 37 μg/ml) for 24 hours. Cell viability was measured using the ALAMAR BLUE Tm assay. […] In contrast, BSM cells are unaffected.
The methods of Example 21 were followed, except BAEC cells were used. Additionally, TSP-1 was added at both 20 μg/ml and 5 μg/ml.
As discussed in Example 19 above, angiocidin was added to BAEC cells. Fragments of angiocidin were added as well. […] GST was used as a negative control. V36-R42, the active site of the antisecretory factor, had no effect, illustrating that angiocidin plays a different role from antisecretory factor.
Bovine aortic endothelial cells (BAEC) were cultured overnight in serum-free media containing either 37 μg/ml his-tagged angiocidin or his-tagged GST. Both angiocidin and GST were expressed in bacteria transformed with the pTrcHisA expression vector and purified on nickel affinity chromatography under non-denaturing conditions. Viability was measured by the ALAMAR BLUE™ assay.
This study examined the effect of anti-angiocidin antibody on angiocidin-mediated inhibition of BAEC viability. BAEC were cultured overnight in serum-free media containing either 5 μg/ml angiocidin, 5 μg/ml angiocidin plus 100 μg/ml control IgG, or 5 μg/ml angiocidin plus 100 μg/ml anti-angiocidin IgG. Viability was measured using the ALAMAR BLUE™ assay, described above.
The endothelial cells (BAEC) were incubated overnight 37 μg/ml of the angiocidin, fragments, and GST. Viability was measured using the ALAMAR BLUE™ assay.
In general terms: The colour change of resazurin is a common sign of viable cells or microbes.

In the next assay the test system is B16-F10 Melanoma Cells. Briefly: Cell adhesion to immobilized receptor peptides. Type of assay: cell-based, mouse. As to conditions: Example 12, FIG. 14. As to the method: For the adhesion assay, in a 96 well plate, duplicate wells were covered with either TSP-1 (40 μg/ml), fibronectin (40 μg/ml), or and 1% bovine serum albumin (BSA). The wells were dried out overnight and then blocked with BSA. 100 μl of a suspension containing 2×10^5 cells were plated in the protein covered wells and incubated at 37^□ C. for 20 minutes to 1 hour. The non-adherent cells were removed and the wells were washed with a Hepes buffer. The adherent cells were fixed with 2.5% glutaraldehyde for 10 minutes and stained with 0.2% Giemsa. The stain was washed off and the cells were counted in a field of 1 mm square. Cells adhering to BSA were considered background while cells adhering to fibronectin were the positive control.
The method of Example 12 was followed except the receptor peptides Val-Cys-His-Ser-Lys-Thr-Arg (SEQ ID NO: 8) and Val-Cys(Acm)-His-Ser-Lys-Thr-Arg (SEQ ID NO: […]) were immobilized on the plates. TSP-1 and fibronectin were also immobilized on plates, as well as negative control peptides (Ala-Ser-Val-Thr-Ala-Arg (SEQ ID NO: 11) and Pro-His-Ser-Arg-Asn (SEQ ID NO: 10)) and bovine serum albumin. […] This provides support for the theory that another protein may be associated with TSP-1 and its receptor, or that the receptor is released and rebound to the membrane of the cell by another protein.

In the next assay the target is T3, receptor-TSP-1 complex (Homo sapiens, UniProt P55036, INS254GER).
T3 construct: Full length cDNA cloned in the PBK-CMV vector was used as a template; 6xHis (pTrcHisA leader) (N); made in house; host or cells: bacteria (pTrcHisA vector)
T3 sequence (P55036 with tags, fused parts or gaps INS254GER): T1 sequence (P55036 with tags, fused parts or gaps INS254GER)
The assay is described as follows: Affinity Sensor System: peptide competition of receptor binding to immobilized TSP-1. As to conditions: 10 fold molar excess of peptide. As to the method: as §1, §2, §3

Assay [4] has as its target T2, TSP-1. The assay is described as follows: Optical binding of angiocidin fragments to TSP-1 derivatized cuvette. Conditions: test proteins at 10 nm in PBS buffer. The protocol:
This study examines the amino terminal (Met1-Lys132) and carboxy terminal (IIe248-Lys380) portions of angiocidin (SEQ ID NOS: 24 and 25, respectively). The binding of undenatured recombinant angiocidin fragments was compared to full length angiocidin. GST was used as a negative control. Binding was evaluated using an optical binding method that uses a cuvette to which TSP-1 is covalently coupled. A laser beam was used to detect whether the test protein (fragments, angiocidin, or GST) is bound to the TSP-1 derivatized cuvette surface. The cuvette was derivatized with 1 μg of TSP-1. The cuvette surfaces were blocked with a 1% BSA solution to prevent nonspecific binding. The test proteins were added at a concentration of […] in a PBS buffer.

From patent US20030180295A1, “Angiocidin: a Cys-Ser-Val-Thr-Cys-Gly specific tumor cell adhesion receptor” (Philadelphia Health and Education Corporation, priority 1999, published 2003) come the findings set out here.

No end group written: not given here. *: point of attachment. Acm = CC(=O)NC*

T2 sequence (P07996 19-1170): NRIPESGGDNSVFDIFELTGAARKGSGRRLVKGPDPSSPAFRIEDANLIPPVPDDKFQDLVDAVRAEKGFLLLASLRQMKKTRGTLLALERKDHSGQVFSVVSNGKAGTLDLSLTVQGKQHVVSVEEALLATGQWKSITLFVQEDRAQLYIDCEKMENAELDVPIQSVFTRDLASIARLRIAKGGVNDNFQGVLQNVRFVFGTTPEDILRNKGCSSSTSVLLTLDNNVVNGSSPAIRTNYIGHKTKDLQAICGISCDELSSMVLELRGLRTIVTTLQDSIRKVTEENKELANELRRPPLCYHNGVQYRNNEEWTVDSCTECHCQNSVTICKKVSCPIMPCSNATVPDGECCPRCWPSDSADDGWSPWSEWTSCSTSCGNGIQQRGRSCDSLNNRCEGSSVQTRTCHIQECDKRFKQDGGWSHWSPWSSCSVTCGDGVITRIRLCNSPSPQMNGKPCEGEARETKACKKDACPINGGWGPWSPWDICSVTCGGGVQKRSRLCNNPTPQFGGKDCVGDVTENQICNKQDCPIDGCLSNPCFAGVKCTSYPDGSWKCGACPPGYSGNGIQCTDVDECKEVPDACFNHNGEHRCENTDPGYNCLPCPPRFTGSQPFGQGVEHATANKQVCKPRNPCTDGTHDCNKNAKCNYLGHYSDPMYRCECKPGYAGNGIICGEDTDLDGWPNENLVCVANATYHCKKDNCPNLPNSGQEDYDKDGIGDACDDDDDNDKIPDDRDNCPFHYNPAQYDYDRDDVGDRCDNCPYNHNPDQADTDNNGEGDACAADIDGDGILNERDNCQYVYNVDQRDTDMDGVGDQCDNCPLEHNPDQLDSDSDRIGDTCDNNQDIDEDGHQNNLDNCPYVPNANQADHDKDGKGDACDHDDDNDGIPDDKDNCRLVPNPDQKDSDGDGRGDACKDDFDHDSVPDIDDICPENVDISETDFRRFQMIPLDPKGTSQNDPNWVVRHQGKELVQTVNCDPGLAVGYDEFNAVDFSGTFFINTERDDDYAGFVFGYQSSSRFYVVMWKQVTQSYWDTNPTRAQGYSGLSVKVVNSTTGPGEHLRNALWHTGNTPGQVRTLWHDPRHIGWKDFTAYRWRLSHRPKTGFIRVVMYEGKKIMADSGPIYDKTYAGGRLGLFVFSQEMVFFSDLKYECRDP

As for “CSVTCG (cysteine pairing not given here) [Cys-Ser-Val-Thr-Cys-Gly (SEQ ID NO: 1), TSP-1 peptide]”, in assay [1], the “competition of biotin-angiocidin binding to TSP-1” value was “effectively competed with TSP-1 for the biotin-angiocidin complex” and the “peptide competition of TSP-1 receptor binding” value (shortened to “peptide competition”) is “effectively inhibited binding”. With KVWVLPI, the “peptide competition” value in assay [1] was “inhibited the binding”. On to “Pro-His-Ser-Arg-Asn (PHSRN) [Pro-His-Ser-Arg-Asn (SEQ ID NO: 10), negative control peptide, reference compound]”, for which, in the assay with TSP-1 [2], the “direct binding to immobilized TSP-1” value is “did not”. Turning to “V36-R42: the active site of the antisecretory factor (VCHSKTR; UniProt P55036 36-42, looked up, fragment) [reference compound]”, in assay [3], the “cell viability, angiocidin and fragments” value was “had no effect”. On to “VCTGSC (cysteine pairing not given here) [Val-Cys-Thr-Gly-Ser-Cys (SEQ ID NO: 15), scrambled peptide, negative control]”, for which the “competition of biotin-angiocidin binding to TSP-1” value in assay [1] is listed as “had no effect”. Turning to “Val-Cys(Acm)-His-Ser-Lys-Thr-Arg (VC(Acm)HSKTR)”, the “cell adhesion to immobilized peptide” value with B16-F10 Melanoma Cells was “cause the cells to adhere to the plates, with similar affinity to the positive controls fibronectin and TSP-1”. Further, the “direct binding to immobilized TSP-1” value with TSP-1 [2] is “bind directly to the immobilized TSP-1”. For the substance “Val-Cys(Acm)-Thr-Gly-Ser-Cys(Acm) (VC(Acm)TGSC(Acm)) [scrambled peptide]”, in the assay with receptor-TSP-1 complex, the “extent of receptor binding, % of buffer control” value stood at 88%. For the substance “carboxy terminal fragment: carboxy terminal (IIe248-Lys380) portion of angiocidin (SEQ ID NO: 25)”, in assay [3] (37 μg/ml, overnight), the “anti-endothelial activity compared to angiocidin” value is on record as “had activity levels similar to the negative control”. The “cell viability, angiocidin and fragments” value in assay [3] is recorded as “did not affect cell viability”. For the same substance, the “binding to TSP-1 derivatized cuvette” value with TSP-1 [4] is given as “show no binding activities”. In the case of “d-Gly-Cys(Acm)-Thr-Val-Ser-Cys(Acm) (GCTVSC; not fully specified (residues 2, 3, 4, 5, 6); printed as d-Gly-Cys(Acm)-Thr-Val-Ser-Cys(Acm); cysteine pairing not given here; also: d- prefix stated for the peptide (mirror image, D-orientation)) [mirror image acetylated peptide]”, the “peptide competition” value in assay [1] is given as “inhibited binding”.
